In PMC4098866:

target: laminin from mouse EHS (Engelbreth-Holm-Swarm) sarcoma (mouse); assay: ELISA

Row | Substance | Kd [nM]
1 | RPSA-(2–220) (from UniProt P14206 2-220) (domain or fragment) | 691
2 | RPSA-(2–295) (from UniProt P14206 2-295) (natural protein) | 666
3 | RPSA-(210–295) (from UniProt P14206 210-295) (domain or fragment) | 374
4 | RPSA-(2–209) (from UniProt P14206 2-209) (domain or fragment) | 273
5 | RPSA-(225–295) (from UniProt P14206 225-295) (domain or fragment) | 344
